Data taken from patent US5863889A, “ICAM-1/LFA-1 short-chain peptides and method of using same” (The University of Kansas, priority 1996, dated 1999).
“Also recorded” adds a separate entry of the source.

How the values were obtained:
ICAM-1 (CD54) = target: T1, ICAM-1 (CD54) (Homo sapiens, UniProt P05362); test: Antibody binding assay (FACS): anti-ICAM-1 mAb (mouse IgG anti-human CD54) binding to Molt3 T-cells after peptide incubation; format: cell-based; conditions: for Fluorescence, % change from control of the medium fluorescence intensity: mAb CD54
T1 construct: host or cells: Molt3 human T-cell leukemia line
T1 sequence (P05362 28-532): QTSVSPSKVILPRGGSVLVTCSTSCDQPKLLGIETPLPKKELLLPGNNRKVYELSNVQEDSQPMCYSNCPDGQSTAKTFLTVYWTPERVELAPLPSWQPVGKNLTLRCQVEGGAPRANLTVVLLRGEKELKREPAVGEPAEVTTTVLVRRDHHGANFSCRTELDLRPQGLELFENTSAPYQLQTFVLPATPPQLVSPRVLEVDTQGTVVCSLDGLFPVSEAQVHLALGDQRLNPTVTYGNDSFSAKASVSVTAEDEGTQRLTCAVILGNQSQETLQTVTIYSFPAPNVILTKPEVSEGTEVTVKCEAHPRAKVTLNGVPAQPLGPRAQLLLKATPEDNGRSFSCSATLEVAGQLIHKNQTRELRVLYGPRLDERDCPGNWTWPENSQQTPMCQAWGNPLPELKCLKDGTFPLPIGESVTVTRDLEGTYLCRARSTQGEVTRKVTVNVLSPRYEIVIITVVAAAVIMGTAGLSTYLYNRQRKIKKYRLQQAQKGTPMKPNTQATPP

Molt3 cells [1] = test: Homotypic adhesion assay (MDHC-induced clumping of T-cells); format: cell-based, human; parameters: key to Homotypic Adhesion Amount: Any sample having a score of "+++" or "++++" is considered to have a significant ability to modulate T-cell binding interaction; Any sample having a score of "+++" or "++++" is considered to have a significant ability to modulate T-cell binding interaction; conditions: 10 μM MDHC
Protocol: As before, the T-cells were Molt3 cells prepared in RPMI 1640 growth medium according to Example 2. An approximate 7 ml aliquot of the growth medium was centrifuged (Jouan Model GT422 at 1400 rpm for 6.5 minutes), and the supernatant fluid was decanted. The pellet was resuspended in the supernatant fluid at titer of about 1×10^6 cells/ml, with the excess supernatant fluid being retained for future resuspension of the peptides.
A 228 nmol quantity of the LJCRF-1 (Sequence ID No. 6) peptide described in Table 1 was diluted with the supernatant fluid to a 500 μl final volume, and filtered in microcentrifuge filter tubes (0.22 micron filter; 3500 rpm for 6 minutes). Serial dilution of the filtered peptide with supernatant fluid was conducted to yield five 125 μl peptide solutions to give respective concentrations of about 115 μM, 230 μM, 460 μM, 910 μM, and 1.82 mM. At each concentration, a 125 μl portion of the cell suspension was pipetted into each 125 μl portion of the peptide solutions to yield combined samples having a 250 μl volume. The 250 μl samples were seeded into individual wells in a 48-well tissue culture grade plate (from Costar of Cambridge, Md.) and incubated at 37° C. for 30 minutes. Each sample received 5 μl of 2,5-methyl dihydroxy cinnamate ("MDHC") for a 10 μM final concentration, and was subsequently incubated for about 10 hours at 37° C. MDHC induces intercellular clumping of human T-cells (Tibbetts, Butler, and Benedict, submitted) by activating the LFA/ICAM binding interaction between respective cells.
Pictures were taken of five random fields per sample using an Olympus photomicroscope having a 0.8 mm field at 400×magnification, and a 3.2 mm field of view at 100×magnification. The amount of clumping observed was quantified by determining the mean number of clumps per field ± a standard error.
FIGS. 5, 6, and 7 replicate photographs taken from exemplary peptide assays. FIG. 5 is a photograph of the control sample having no peptides and no MDHC added, from which essentially no clumping of cells is observed. […] Any sample having a score of "+++" or "++++" is considered to have a significant ability to modulate T-cell binding interaction. This is similar to results obtained by incubating similarly treated cells with antibody against either LFA or ICAM.
The homotypic adhesion assay assesses the actual ability of a candidate peptide to modulate the ability of T-cells to adhere with one another.

Molt3 cells [2] = test: Cell metabolic assay (MTT); format: cell-based
Protocol: After taking the photographs in Example 3 (and in some instances no photographs were taken), cell metabolic activity was assessed by an MTT assay. A 37.5 μl portion of MTT dye (purchased from SIGMA of St. Louis, Mo.), i.e., 3-[4,5-dimethyl thiazole-2yl]-2, 5- diphenyl tetrazolium bromide; thiazolyl blue) was added to each well, and incubated with the cells at 37° C. for about six hours. After incubation, a 250 μl quantity of a MTT solubilization solution (of a type that may be purchased from either Fischer Scientific of St. Louis, Mo. or BCD Labs of Lawrence, Kans.) was added to each well, and incubated with the cells at room temperature overnight. In the morning, the spectrophotometric absorption of each plate was determined at 570 nm in a microplate ELISA reader manufactured by Cambridge Technologies of Water-town, Mass., in order to assess cell viability as an indicator of potential peptide toxicity.

ICAM-1 = target: T2, ICAM-1 (Homo sapiens, UniProt P05362); test: Conformation modulator assay: flow cytometry of FITC-labeled RB-1-88 binding to T-cells after pre-incubation with first peptide; format: cell-based; conditions: first peptide 4550 μM
T2 construct: host or cells: Molt3 human T-cell leukemia line
T2 sequence (P05362 28-532): as above
Protocol: The antibody binding assay of Example 2 was twice repeated at a peptide concentration of 4550 μM, each time substituting a 455 nmol quantity of synthetic peptide selected from the group consisting of ICAM-based peptide SC-3-111 (Sequence ID No. 10) and LFA-based peptide LJCRF-4 (Sequence ID No. 16) in respective assays. Following incubation for 30 minutes at 37° C. after introduction of the first peptides, both incubated culture were supplemented by an additional quantity of FITC-labeled RB-1-88 (Sequence ID No. 19) peptide in a quantity sufficient to provide a 1.90 μM concentration in the cell/PBS solution.
Following addition of the RB-1-88 (Sequence ID No. 19) peptide, the mixture was incubated for 30 minutes at 4° C., washed three times with 500 μl PBS/BSA, resuspended in 500 μl PBS/BSA and immediately subjected to a flow cytometer analysis as before. Table 3 presents the results of this analysis, which are also depicted in FIGS. 8 (SC-3-111) and 9 (LJCRF-4).

LFA-1 (CD11a) = target: T3, LFA-1 (CD11a) (Homo sapiens, UniProt P20701); test: Antibody binding assay (FACS): anti-LFA-1 mAb (mouse IgG anti-human CD11a) binding to Molt3 T-cells after peptide incubation; format: cell-based; conditions: for Fluorescence, % change from control of the medium fluorescence intensity: mAb CD11a, average ± standard error of runs
T3 construct: host or cells: Molt3 human T-cell leukemia line
T3 sequence (P20701 26-1170): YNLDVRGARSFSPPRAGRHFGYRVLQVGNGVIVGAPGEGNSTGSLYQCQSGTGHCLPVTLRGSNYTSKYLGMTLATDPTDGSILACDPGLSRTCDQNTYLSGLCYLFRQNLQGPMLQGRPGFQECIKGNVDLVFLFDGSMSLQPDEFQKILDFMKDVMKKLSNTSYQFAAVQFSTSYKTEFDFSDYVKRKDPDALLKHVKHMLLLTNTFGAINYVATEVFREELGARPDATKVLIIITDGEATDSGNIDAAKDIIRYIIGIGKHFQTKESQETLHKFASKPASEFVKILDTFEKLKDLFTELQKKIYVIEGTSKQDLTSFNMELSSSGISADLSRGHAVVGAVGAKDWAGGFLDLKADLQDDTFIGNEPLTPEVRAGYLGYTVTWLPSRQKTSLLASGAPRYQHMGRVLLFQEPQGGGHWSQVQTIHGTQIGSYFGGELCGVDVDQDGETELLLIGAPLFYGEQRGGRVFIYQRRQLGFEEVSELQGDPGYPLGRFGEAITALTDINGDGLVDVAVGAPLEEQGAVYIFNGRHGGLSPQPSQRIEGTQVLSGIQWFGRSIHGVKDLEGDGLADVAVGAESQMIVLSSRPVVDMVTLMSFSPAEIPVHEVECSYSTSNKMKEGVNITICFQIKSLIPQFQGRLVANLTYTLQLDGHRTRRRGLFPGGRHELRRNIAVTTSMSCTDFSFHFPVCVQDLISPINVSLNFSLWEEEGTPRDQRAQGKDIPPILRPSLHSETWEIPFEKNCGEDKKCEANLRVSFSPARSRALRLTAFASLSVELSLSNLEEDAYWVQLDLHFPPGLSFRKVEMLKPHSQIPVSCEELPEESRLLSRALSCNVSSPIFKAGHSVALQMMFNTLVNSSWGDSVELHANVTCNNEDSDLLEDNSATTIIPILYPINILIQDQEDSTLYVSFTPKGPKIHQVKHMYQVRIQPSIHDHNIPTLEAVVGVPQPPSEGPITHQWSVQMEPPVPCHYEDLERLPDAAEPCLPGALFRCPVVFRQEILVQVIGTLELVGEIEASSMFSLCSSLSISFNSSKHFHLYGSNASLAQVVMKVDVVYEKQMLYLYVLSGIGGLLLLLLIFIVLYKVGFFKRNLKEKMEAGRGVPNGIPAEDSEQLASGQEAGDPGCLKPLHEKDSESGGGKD
T3 sequence (P05107 23-769 partner): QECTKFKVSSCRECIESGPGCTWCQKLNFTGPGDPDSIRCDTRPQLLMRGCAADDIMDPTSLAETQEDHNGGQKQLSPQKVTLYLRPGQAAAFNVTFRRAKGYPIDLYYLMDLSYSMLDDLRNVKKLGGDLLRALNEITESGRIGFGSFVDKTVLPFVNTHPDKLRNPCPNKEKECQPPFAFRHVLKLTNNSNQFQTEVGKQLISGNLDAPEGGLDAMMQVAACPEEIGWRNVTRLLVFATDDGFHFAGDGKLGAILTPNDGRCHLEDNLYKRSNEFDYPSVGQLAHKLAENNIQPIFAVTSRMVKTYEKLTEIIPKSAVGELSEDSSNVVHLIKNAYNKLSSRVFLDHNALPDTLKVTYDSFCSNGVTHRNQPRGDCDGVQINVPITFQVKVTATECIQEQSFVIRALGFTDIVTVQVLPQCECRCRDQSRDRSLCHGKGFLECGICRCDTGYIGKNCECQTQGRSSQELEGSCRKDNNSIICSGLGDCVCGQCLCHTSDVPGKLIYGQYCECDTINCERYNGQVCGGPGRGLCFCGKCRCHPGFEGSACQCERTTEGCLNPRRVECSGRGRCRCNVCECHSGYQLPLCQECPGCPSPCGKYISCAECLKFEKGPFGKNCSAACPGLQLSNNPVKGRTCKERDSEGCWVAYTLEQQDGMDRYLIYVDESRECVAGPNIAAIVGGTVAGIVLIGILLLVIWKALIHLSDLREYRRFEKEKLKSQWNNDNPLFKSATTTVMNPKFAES
Protocol: A 1 ml quantity of the Molt3 inoculum was warmed to 37° C. and transferred by pipette into about 25 ml of a growth culture medium including RPMI 1640 lymphocyte growth medium (Fisher Scientific of St. Louis, Miss.) mixed with 10% by volume fetal calf serum, 100 units/ml penicillin, 100 μg/ml streptomycin and 2 mM glutamine. The inoculated culture was incubated for three to four days at 37° C. under a normal atmosphere having about 5% CO2 added thereto. This culture was capable of being maintained indefinitely by siphoning away the top (non-cell containing) layer and adding 50 ml (or more) of growth culture medium at intervals of three to four days.
An aqueous buffer solution including Dulbecco's phosphate buffered saline and bovine serum albumin ("-PBS/BSA solution") was prepared for use, and included a mixture of 200 mg KH2 PO4, 1.15 g Na2 HPO4, 100 mg CaCl2, 200 mg KCl, 100 mg MgCl2.6H2 O, 8 g NaCl, with distilled water added to a final 1 liter volume at room temperature, thus, forming a "PBS" solution of pH 7.4 to which was added 0.5% by weight bovine serum albumin.
An aliquot of about 7 ml was removed from the incubated culture medium and subjected to washing with the PBS/BSA solution. The washing procedure was initiated by placing the aliquot in a centrifuge (Model GT422 from Jouan, distributed Piruscio & Assoc. of Manchester, Miss.) at 1400 rpm for 6.5 minutes to separate the cells from the growth medium. The supernatant fluid was decanted, a 5 ml portion of PBS/BSA solution was transferred by pipette into the pellet, and the mixture was again centrifuged as before. The resulting supernatant fluid was decanted and the cells from the pellet were resuspended in PBS/BSA solution at a titer of about 1×10^6 cells/ml. A 500 μl portion of the solution containing the resuspended cells was placed in a microcentrifuge (Marathon 13K/M from Fisher Scientific of St. Louis, Miss.) at 3500 rpm for six minutes, to provide a washed pellet.
[…] The cells were incubated with the peptide cocktail at 37° C. for 45 minutes.
After incubation with the peptide cocktail, several antibodies were successively mixed into the incubated solution. A 75 μl portion of anti-IgM solution (a mixture of 10 μl of goat anti-human IgM stock purchased from Jackson Immuno Research of Westgrove, Pa.; and 65 μl of PBS/BSA solution) was added to the peptide cocktail for blocking of nonspecific binding of the secondary antibody. The resulting mixture was incubated for 10 minutes on ice. About 0.1 μg of a primary antibody including mouse IgG anti-human CD11a (purified according to conventional protocols at the University of Kansas Department of Pharmacology and Toxicology from an American Type Culture hybridoma cell line having Catalogue Number HB-202) was next stirred into the mixture, which was then incubated for 30 minutes at room temperature. The incubated mixture was placed in a microcentrifuge at 3500 rpm for six minutes to remove the cells from the mixture, and the cell pellet was washed two times by adding 500 μl aliquots of PBS/BSA solution and microfuging to remove non-bound antibodies from the cells as before. The resulting washed pellet was resuspended in 100 μl of a secondary antibody cocktail including 5 μl of fluorescein isothiocyanate ("FITC") labeled goat anti-mouse IgG (from CALTAG of South San Francisco, Calif.) and 95 μl of PBS/BSA solution. The resulting solution was incubated for 30 minutes at room temperature in the dark.
The incubated solution including the secondary antibody cocktail was microfuged at 3500 rpm for six minutes to remove the cells from the solution, and the cell pellet was washed two times with 500 μl portions of PBS/BSA solution, as before, to remove unbound antibodies. […]

Molt3 cells [3] = test: Homotypic adhesion assay (MDHC-induced clumping of T-cells); format: cell-based, human; conditions: 10 μM MDHC, listed as LJCRF-2

Substance | Homotypic Adhesion Amount (Molt3 cells [1]; peptide 230 μM) | Homotypic Adhesion Effect (Molt3 cells [1]; peptide 230 μM) | Homotypic Adhesion Effect (Molt3 cells [1]; peptide 460 μM) | Homotypic Adhesion Amount (Molt3 cells [1]; peptide 910 μM) | Homotypic Adhesion Effect (Molt3 cells [1]; peptide 910 μM) | Homotypic Adhesion Amount (Molt3 cells [1]; peptide 1820 μM) | Homotypic Adhesion Effect (Molt3 cells [1]; peptide 1820 μM) | MTT % Viability (Molt3 cells [2]; peptide 230 μM) [%] | MTT % Viability (Molt3 cells [2]; peptide 460 μM) [%] | MTT % Viability (Molt3 cells [2]; peptide 910 μM) [%] | MTT % Viability (Molt3 cells [2]; peptide 1820 μM) [%] | other results
LJCRF-4: LFA-1β based modulator peptide, Sequence ID No. 16 (DLSYSLDDLRNVKKLGGDLLRALNE) | +++ | Enhance; also recorded: binding enhancers | Block; also recorded: blockers of intercellular adhesion | ++++ | Block | +++ | Block | 101 | 94 | 60 | 11 | effect on anti-ICAM-1 mAb binding (ICAM-1 (CD54); FIG. 4, peptide 4550 μM): promote the specific antibody binding; Fluorescence, % change from control of the medium fluorescence intensity (ICAM-1 (CD54); peptide 2275 μM, average ± standard error of runs): +3 ± 1%; Fluorescence, % change from control of the medium fluorescence intensity (ICAM-1 (CD54); peptide 6825 μM, 1 run): +521%; median peak curve shift (enhancement) (ICAM-1 (CD54); single run of FIG. 4, peptide 4550 μM, anti-ICAM antibody): +447%; Homotypic Adhesion Amount (Molt3 cells [1]; peptide 115 μM): +++; Homotypic Adhesion Effect (Molt3 cells [1]; peptide 115 μM): Enhance; Homotypic Adhesion Amount (Molt3 cells [1]; peptide 460 μM): ++++; MTT % Viability (Molt3 cells [2]; peptide 115 μM): 99%; FACS Analysis (RB-1-88 binding) (ICAM-1; then FITC-labeled RB-1-88 1.90 μM, shift vs control): +145%; effect on binding of labeled peptide (RB-1-88 / LJCRF-6) to T-cell ICAM-1 (ICAM-1; FIGS. 8, 9): synergistically increases binding; also recorded: significant T-cell binding enhancement; also recorded: significantly enhanced
SC-3-152: ICAM-derived short-chain peptide, Sequence ID No. 11; modulator peptide (DQPKLLGIETPLPKKELLLPGNNRK) | +++ | Enhance | Enhance | +++ | Block | ++++ | Block | 38 | 38 | 38 | 43 | Fluorescence, % change from control of the medium fluorescence intensity (LFA-1 (CD11a); peptide 2275 μM): +48 ± 8%; Fluorescence, % change from control of the medium fluorescence intensity (LFA-1 (CD11a); peptide 4550 μM, negative = blocking): -43 ± 7%; effect on antibody binding (LFA-1 (CD11a); peptide 2275 μM): enhance such binding; effect on antibody binding (LFA-1 (CD11a); peptide 4550 μM): block antibody binding; MTT % Viability (Molt3 cells [2]; concentration not given): 38%; Homotypic Adhesion Effect (Molt3 cells [3]; peptide 460 μM): binding enhancers; Homotypic Adhesion Effect (Molt3 cells [3]; peptide 910 μM): blockers of intercellular adhesion
